B1: A-15B08: anti-α5β1 antibody, VH SEQ ID NO:25, VL SEQ ID NO:26; tested as mouse hybridoma antibody and as human IgG4 chimera (antibody, V domains shown)
VH: QVQLKESGPGLVAPSQSLSITCTISGFSLTSYGVHWVRQPPGKGLEWLVVIWSDGSTTYNSTLKSRLSISKDNSKSQVFFKMNSLQTDDTAMYYCARHYDYDGDWFAYWGQGTLVTVSA
VL: QIVLTQSPAIMSASLGERVTMTCTASSRVSSNSLHWYQQKPGSSPKLWIYSTSNLASGVPARFSGSGSGTSYSLTISSMEAEDAATYYCHQYLRSPPTFGGGTKLEIK
modifications: A-15B08 VH Sequence; A-15B08 VL Sequence
notes: tested as mouse hybridoma antibody and as human IgG4 chimera
B2: A2-7A05: anti-α5β1 antibody, VH SEQ ID NO:77, VL SEQ ID NO:78; tested as mouse hybridoma antibody and as human IgG4 chimera (antibody, V domains shown)
VH: QVQLQQPGAELVKPGASVKLSCKASGYTFTIYWINWVKQRPGQGLEWIGKIYPGSISTDYNEKFKSKATLTVDTSSSTAYMQLSSLTSDDSAVYYCAITGTGGLAYWGQGTLVTVSA
VL: ENVLTQSPAIMSASLGEKVTMTCRASSSVNYMYWYQQKSDASPKLWIYFTSSLAPGVPGRFSGSGSGNSYSLTISTMEGEDAATYYCQQFTTSPFTFGSGTKLEIK
modifications: A2-7A05 VH Sequence; A2-7A05 VL Sequence
notes: as for B1

Experiments:
[1] = target: T1, binding of α5β1 integrin to fibronectin (FN) (Homo sapiens, UniProt P05556+P08648); assay: Quantitative FN inhibition (FN-blocking) assay in ELISA format; assay type: biochemical; settings: by ELISA
T1 construct: purchased Acro Biosystems IT1-H52W5
Description: To determine whether the 9 unique hybridoma clones selected as described in Example 4 were able to inhibit the binding of α5β1 integrin to fibronectin (FN), the antibodies were first purified from hybridoma supernatants by Protein A chromatography, protein concentrations measured by BCA assay (Pierce™ BCA Protein Assay Kit; Thermo Fisher Scientific, Waltham, MA, cat. no. 23225) and then tested in a quantitative FN inhibition assay in an ELISA format.
Immulon4 HBX ELISA 96-well plates were coated with FN by incubation overnight at 4° C. with 2.5 μg/mL human FN (R&D Systems, Minneapolis, MN 55413, cat. no. 1918-FN) in 1×PBS (0.01M phosphate buffer and 0.154M NaCl, pH 7.4). Plates were then washed 3 times with Wash Buffer (1× Tris Buffered Saline containing 0.05% Tween20), blocked with 2% BSA in 1×TBS for 2 hours at room temperature (RT). Antibodies were diluted in Standard Diluent (2% BSA, 1×TBS, 0.05% Tween20) containing 0.1 μg/mL rh-α5β1-6×His tagged protein (Acro Biosystems, Newark, DE, cat. no. IT1-H52W5), to generate an 11 point 1:3 antibody dilution series ranging from 10,000 ng/mL to 0.17 ng/mL. Isotype control antibody (Control Ab; Ms IgG2a EMD Millipore Corp, Billerica, MA, cat. no. PP102) was used to normalize data across different assay runs. For the assays, 100 uL of the antibody dilution series/His-tagged-α5β1 mixture was added to the wells after the blocking solution was removed and wells were washed 3 times. Following 1 hour at RT, the wells were washed 3 times, incubated with biotinylated Anti-6×His-Tag Ab (Invitrogen, Carlsbad, CA, cat. no. MAI-21315-BTIN) at 1:1000 in Standard Diluent for 1 hour, washed 3 times, incubated for 30 minutes with poly-HRP Streptavidin (Thermo Fisher Scientific, Waltham, MA, cat. no. N200), washed 4 times, incubated with TMB substrate (Thermo Fisher Scientific, Waltham, MA, cat. no. N301) for 2-5 minutes, followed by addition of ELISA Stop Solution (Invitrogen, Carlsbad, CA, cat. no. SS04). Absorbance 450 nm was measured. Data points were normalized to the isotype Control Ab values at each concentration and reported as % Absorbance 450 nm normalized to Control Ab. Non-linear regression analysis was used to fit curves (4-parameter) to the data using GraphPad Prism version 9.0.2 (GraphPad Software, LLC, San Diego, CA).
Freeze-thaw stability was tested on a small aliquot of each chimera antibody by overnight storage at −80° C. followed by thaw on ice, repeated three times. […] IC50s were calculated by non-linear regression analysis curve-fitting (4-parameter) of the ELISA data (FIG. 5) using GraphPad Prism version 9.0.2 (GraphPad Software, LLC, San Diego, CA). […]

[2] = system: U87MG cells; assay: Cellular detachment of U87MG cells from FN coated plates; assay type: cell-based; settings: for antibody concentration at which cellular detachment was seen: A-15B08 at 1 and 3 hours, A2-7A05 only obvious at 3 hours; for cellular detachment (cell rounding) of U87MG cells from FN coated plates: antibodies 2.0-0.016 μg/mL, cRGD 20-0.16 μM, 1 hour and 3 hours
Description: The A-15B08 and A2-7A05 antibodies and cRGD were also tested for their ability to induce dissociation of cellular α5β1 integrin from FN. U87MG cells (HTB-14™, ATCC, Manassas, VA) which were originally derived from a Glioblastoma tumor, are known to express α5β1 integrin, and adhere to FN coated plates. After an overnight incubation on FN coated plates, the U87MG cells formed a loosely packed monolayer and have extended spindle shapes. If the cells are induced to detach from the plates, by trypsin for example, the attachment points are released, and the cells become round. This type of change in morphology was used to assess whether the antibodies and the small molecule inhibitor cRGD can induce U87MG cells to dissociate from FN coated plates.
The following method was used to assess cellular detachment activity: A 96-well cell culture plate (Thermo Fisher Scientific, Waltham, MA, cat. no. 165306) was coated with FN (Human Fibronectin, R&D Systems, Minneapolis, MN 55413, cat. no. 1918-FN) by incubation of 50 uL per well 32 μg/mL FN in 1×PBS for 1 hour at 37° C., then washed 2× with EMEM media (ATCC, Manassas, VA, cat. no. 30-2003) supplemented with 10% Fetal Bovine Serum (FBS; ATCC, Manassas, VA, cat. no. 30-2021). U87MG cells were plated at 20,000 cells per well in EMEM media+10% FBS overnight to allow for maximum adherence. The next day the media was replaced with fresh media that included a 1:5 dilution series of antibodies A-15B08, A2-7A05 or isotype control IgG4 at concentrations of 2.0, 0.4, 0.08 and 0.016 μg/mL or cRGD at 20, 4, 0.8 and 0.16 μM. All tests were run in duplicate. Cell morphology was assessed, and images were captured using a 10× objective of an ECHO Rebel light microscope (ECHO, San Diego, CA).

T1 sequence (P08648 42-894 limits assumed): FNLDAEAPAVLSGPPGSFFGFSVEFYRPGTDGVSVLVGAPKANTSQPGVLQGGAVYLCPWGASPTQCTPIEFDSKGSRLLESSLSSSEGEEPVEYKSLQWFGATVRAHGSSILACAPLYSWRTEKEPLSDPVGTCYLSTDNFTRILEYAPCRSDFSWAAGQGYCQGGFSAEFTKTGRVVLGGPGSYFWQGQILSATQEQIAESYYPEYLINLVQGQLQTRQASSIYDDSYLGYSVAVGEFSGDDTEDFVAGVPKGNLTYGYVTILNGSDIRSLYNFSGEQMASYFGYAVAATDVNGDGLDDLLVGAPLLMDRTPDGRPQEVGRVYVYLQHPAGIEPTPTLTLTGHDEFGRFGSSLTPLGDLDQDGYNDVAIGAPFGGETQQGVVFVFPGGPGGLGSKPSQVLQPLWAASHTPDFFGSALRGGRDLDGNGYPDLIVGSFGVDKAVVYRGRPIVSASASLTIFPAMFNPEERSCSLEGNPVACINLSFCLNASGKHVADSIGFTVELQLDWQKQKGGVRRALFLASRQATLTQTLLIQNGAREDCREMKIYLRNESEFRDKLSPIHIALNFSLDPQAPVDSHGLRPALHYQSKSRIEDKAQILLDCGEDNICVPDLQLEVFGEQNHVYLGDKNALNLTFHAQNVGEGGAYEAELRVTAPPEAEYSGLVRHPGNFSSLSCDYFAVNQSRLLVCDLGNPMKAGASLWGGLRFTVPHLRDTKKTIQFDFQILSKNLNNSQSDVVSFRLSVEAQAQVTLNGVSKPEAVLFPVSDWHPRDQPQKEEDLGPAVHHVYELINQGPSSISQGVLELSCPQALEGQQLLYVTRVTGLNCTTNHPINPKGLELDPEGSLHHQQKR
T1 sequence (P08648 895-995 limits assumed): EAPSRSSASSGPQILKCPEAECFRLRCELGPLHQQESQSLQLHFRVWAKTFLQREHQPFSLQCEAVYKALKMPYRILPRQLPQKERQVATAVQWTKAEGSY
T1 sequence (P05556 21-728 limits assumed): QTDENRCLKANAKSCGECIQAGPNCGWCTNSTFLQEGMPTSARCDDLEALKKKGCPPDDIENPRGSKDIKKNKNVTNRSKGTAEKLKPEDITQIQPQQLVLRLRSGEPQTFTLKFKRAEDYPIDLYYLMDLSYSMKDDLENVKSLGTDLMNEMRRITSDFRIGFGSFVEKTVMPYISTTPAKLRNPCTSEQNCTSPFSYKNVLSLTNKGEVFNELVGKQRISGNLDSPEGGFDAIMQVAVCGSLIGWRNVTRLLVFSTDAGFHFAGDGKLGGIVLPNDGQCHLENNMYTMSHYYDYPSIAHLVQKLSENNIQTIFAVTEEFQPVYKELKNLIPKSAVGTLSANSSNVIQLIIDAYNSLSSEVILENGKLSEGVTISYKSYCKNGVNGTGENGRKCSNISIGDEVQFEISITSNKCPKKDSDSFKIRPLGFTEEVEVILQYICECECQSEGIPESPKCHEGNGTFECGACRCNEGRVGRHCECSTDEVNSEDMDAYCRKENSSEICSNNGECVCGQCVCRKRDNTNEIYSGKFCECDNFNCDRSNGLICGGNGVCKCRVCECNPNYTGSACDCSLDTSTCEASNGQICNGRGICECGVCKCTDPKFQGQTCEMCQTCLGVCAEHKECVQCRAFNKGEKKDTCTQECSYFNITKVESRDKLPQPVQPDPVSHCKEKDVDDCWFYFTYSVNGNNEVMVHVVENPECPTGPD

| Molecule | class of FN binding blocker [1] | antibody concentration at which cellular detachment was seen [2] | cellular detachment (cell rounding) of U87MG cells from FN coated plates [2] |
| --- | --- | --- | --- |
| B1 | strong blockers of FN binding | 0.4 µg/mL | significant cell rounding |
| B2 | partial blocker of FN binding | 0.4 µg/mL | much lower level |

From US20240279345A1, “ALPHA 5 BETA 1 INTEGRIN BINDING AGENTS AND USES THEREOF” (PASITHEA THERAPEUTICS CORP., priority 2021, published 2024)
